From paper doi:10.1101/2023.03.31.535174 come the findings set out here.

In this series the target is T1, AP2-I_D3 (AP2 domain 3) (Plasmodium falciparum, UniProt Q8IJW6 775-824).
T1 chain: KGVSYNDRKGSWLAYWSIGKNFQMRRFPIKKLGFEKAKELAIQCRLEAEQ
The series is described as follows: EMSA. In general terms: Mobility shift assays separate free from complexed probe on a gel.

B1: AGTGCATTA probe with distal shape mutations (series, up to six point mutations) (dsDNA)
DNA 1: GATAAAATGAGTAAAGTGCATTAAATGTTGTACACC
DNA 2: GGTGTACAACATTTAATGCACTTTACTCATTTTATC
On to B1, for which the binding result is given as “binds”.
